# Where a chain is given by its changes, count along the chain named.
# B1: SAD10318_P01_H03 (ADI-48591) (antibody, V domains shown)
# VH: QVQLVQSGAEVKKPGASVKVSCKASGFNIKDYYMHWVRQAPGQRLEWMGWIDLENANTIYDAKFQGRVTITRDTSASTAYMELSSLRSEDTAVYYCAHDAYGHYFYDVWGQGTLVTVSS
# VL: DIVMTQSPDSLAVSLGERATINCKSSQSLLNARTGHNYLAWYQQKPGQPPKLLIYWASTRESGVPDRFSGRGSGTDFTLTISSLQAEDVAVYYCKQSYHHRTFGGGTKVEIK
# notes: IgG; also called Ab102
# B2: SAD10318_P04_C11 (ADI-48615) (antibody, V domains shown)
# VH: B1 VH with H98R, A100H, Y101H, H103R
# VL: B1 VL with Y38H, R71S, H99S, H100R
# notes: IgG; also called Ab218
# B3: SAD10318_P02_A05 (ADI-48595) (antibody, V domains shown)
# VH: B1 VH with A9T, H98R, G102H, H103R, V108H
# VL: B1 VL with A32S, R33H, H36K, R71S, H99S, H100R
# notes: IgG; also called Ab178
# B4: SAD10318_P03_C09 (ADI-48609) (antibody, V domains shown)
# VH: B1 VH with H98R, G102H, H103R, V108H
# VL: B1 VL with R33H, H36K, Y38H, R71S
# notes: IgG; also called Ab205
# B5: SAD10318_P04_D11 (ADI-48616) (antibody, V domains shown)
# VH: B1 VH with H98R
# VL: B1 VL with Y38H, R71S, K95H, H99S
# notes: IgG; also called Ab219
# B6: SAD10318_P02_G06 (ADI-48600) (antibody, V domains shown)
# VH: B1 VH
# VL: B1 VL with N31H, A32T, H36K, R71S, H99S, H100R
# notes: IgG; also called Ab189
# B7: SAD10318_P02_C04 (ADI-48592) (antibody, V domains shown)
# VH: B1 VH with K13E, H98R, Y101H, G102H, H103R
# VL: B1 VL with R33H, R71S, H99S, H100R
# notes: IgG; also called Ab125
# B8: SAD10318_P03_E08 (ADI-48605) (antibody, V domains shown)
# VH: B1 VH with H98R, A100H, G102H, H103R
# VL: B1 VL with R33H, H36K, Y38H, R71S, H100R, T102H
# notes: IgG; also called Ab199
# B9: SAD10318_P04_B11 (ADI-48614) (antibody, V domains shown)
# VH: B1 VH with H98R, A100H, G102H, H103R
# VL: B1 VL with R33H, H36K, Y38H, R71S, H99S, H100R
# notes: IgG; also called Ab217
# B10: SAD10318_P03_F07 (ADI-48602) (antibody, V domains shown)
# VH: B1 VH with H98R, Y101H, H103R, F105H
# VL: B1 VL with S10C, R71S, Y98H, H99S
# notes: IgG; also called Ab192
# B11: SAD10318_P04_D10 (ADI-48613) (antibody, V domains shown)
# VH: B1 VH with H98R, F105H
# VL: B1 VL with N31H, H36K, Y38H, R71S, H99S, H100R
# notes: IgG; also called Ab211
# B12: SAD10318_P04_A12 (ADI-48618) (antibody, V domains shown)
# VH: B1 VH with H98R, G102H, H103R, Y104H
# VL: B1 VL with N31H, A32P, H36K, R71S
# notes: IgG; also called Ab224
# B13: SAD10318_P03_A09 (ADI-48608) (antibody, V domains shown)
# VH: B1 VH with H98R, A100H, H103R, V108H
# VL: B1 VL with Y38H, R71S
# notes: IgG; also called Ab203
# B14: SAD10318_P03_H08 (ADI-48607) (antibody, V domains shown)
# VH: B1 VH with H98R, G102H
# VL: B1 VL with Y38H, R71S, K95H, Y98H, H99S, H100R
# notes: IgG; also called Ab202
# B15: SAD10318_P02_H04 (ADI-48594) (antibody, V domains shown)
# VH: B1 VH with H98R, G102H, H103R, V108H
# VL: B1 VL with N31H, R71S, H99S, H100R
# notes: IgG; also called Ab169
# B16: SAD10318_P03_E07 (ADI-48601) (antibody, V domains shown)
# VH: B1 VH with H98R, A100H, G102H, H103R
# VL: B1 VL with R33H, H36K, R71S, K95H, Y98H, H99S, H100R
# notes: IgG; also called Ab191
# B17: SAD10318_P02_G04 (ADI-48593) (antibody, V domains shown)
# VH: B1 VH with H98R, F105H
# VL: B1 VL with N31H, H36K, R71S
# notes: IgG; also called Ab158
# B18: SAD10318_P04_C10 (ADI-48612) (antibody, V domains shown)
# VH: B1 VH with H98R, H103R, F105H, Y106H
# VL: B1 VL with Y38H, R71S, K95H, H100R
# notes: IgG; also called Ab210
# B19: SAD10318_P04_H11 (ADI-48617) (antibody, V domains shown)
# VH: B1 VH with H98R, A100H, H103R, V108H
# VL: B1 VL with S7Y, R33H, R71S, K95H, H99S
# notes: IgG; also called Ab223
# B20: SAD10318_P02_B05 (ADI-48596) (antibody, V domains shown)
# VH: B1 VH with H98R, H103R, Y104H, V108H
# VL: B1 VL with R33H, H36K, R71S, H99S, H100R
# notes: IgG; also called Ab179
# B21: SAD10318_P03_C08 (ADI-48603) (antibody, V domains shown)
# VH: B1 VH with H98R, A100H
# VL: B1 VL with N31H, H36K, Y38H, R71S, Y98H, H99S
# notes: IgG; also called Ab197
# B22: SAD10318_P03_F08 (ADI-48606) (antibody, V domains shown)
# VH: B1 VH with H98R, A100H, G102H, H103R
# VL: B1 VL with R33H, H36K, Y38H, R71S, H99S, H100R, T102H
# notes: IgG; also called Ab200
# B23: SAD10318_P02_H05 (ADI-48599) (antibody, V domains shown)
# VH: B1 VH with H98R, Y104H
# VL: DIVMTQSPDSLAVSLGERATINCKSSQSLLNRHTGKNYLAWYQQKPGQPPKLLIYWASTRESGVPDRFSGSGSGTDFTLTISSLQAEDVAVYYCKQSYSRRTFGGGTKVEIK
# notes: IgG; also called Ab185
# B24: SAD10318_P03_D08 (ADI-48604) (antibody, V domains shown)
# VH: B1 VH with S75A, H98R, A100H, G102H, H103R, V108H
# VL: B1 VL with R33H, H36K, Y38H, R71S, H99S, H100R
# notes: IgG; also called Ab198
# B25: SAD10318_P03_D09 (ADI-48610) (antibody, V domains shown)
# VH: B1 VH with Y33H, H98R, Y101H, G102H, H103R
# VL: B1 VL with R33H, H36K, Y38H, R71S, Y98H, H99S
# notes: IgG; also called Ab206
# B26: SAD10318_P02_D05 (ADI-48598) (antibody, V domains shown)
# VH: B1 VH with H98R, A100H
# VL: B1 VL with H36K, Y38H, R71S
# notes: IgG; also called Ab181
# Target: T1, human CD3 on CD3+ Jurkat cells (human, UniProt P07766 23-207)
# T1 construct: whole, on cells; Native CD3 complex on cells; the other CD3 chains are not specified for this assay; also called Human CD3+ Jurkat
# Test: flow cytometry on CD3+ Jurkat cells, ratio of MFI at pH 6.0 to pH 7.4
# Experimental: (§1) Specificity of the anti-CD3 antibodies for human CD3+ Jurkat cells compared to CHO-S cells at pH 6.0 and 7.4 was determined using a FACS cell binding assay. Briefly, CD3+ human Jurkat cells and CHO-S cells were thawed and washed with cold PBSF buffer, pH 7.4 (PBS+0.1% BSA, pH 7.4). About 200,000 cells were aliquoted per well of a 96-well plate and pelleted by centrifugation (5 minutes at 500×g). The cells were washed with either PBSF pH 7.4 or PBSF pH 6.0 (PBS+0.1% BSA, pH 6.0), and then resuspended in 100 ul in either PBSF pH 7.4 or PBSF pH 6.0 with IgG antibody produced in yeast (100 nM). The mixture (cells+antibody) was incubated for 20 minutes on ice, then washed twice with either PBSF pH 7.4 or PBSF pH 6.0. Cells were resuspended in 50 ul of propidium iodide (1:500 dilution) and anti-human IgG-RPE (1:100 dilution) prepared in either PBSF pH 7.4 or PBSF pH 6.0, then incubated for 20 minutes on ice in the dark before cells were washed twice with either PBSF pH 7.4 or PBSF pH 6.0. Binding was analyzed on FACS Canto II.
# (§2) Cell binding assays. CD3+ human Jurkat cells (ATCC) and CHO-S cells (Invitrogen/ThermoFisher) were thawed and washed with cold PBSF buffer, pH 7.4 (PBS+0.1% BSA, pH 7.4). About 200,000 cells were aliquoted per well of a 96-well plate (FACS Assay Plate VWR BD 353263) and pelleted by centrifugation (5 minutes at 500×g). The cells were washed with either PBSF pH 7.4 or PBSF pH 6.0 (PBS+0.1% BSA, pH 6.0), and then resuspended in 100 ul in either PBSF pH 7.4 or PBSF pH 6.0 with IgG antibody (100 nM) produced in yeast as described above. The mixture (cells+antibody) was incubated for 20 minutes on ice, then washed twice with either PBSF pH 7.4 or PBSF pH 6.0. Cells were resuspended in 50 ul of propidium iodide (Roche; 1:500 dilution) and anti-human IgG-RPE (Southern Biotech; 1:100 dilution) prepared in either PBSF pH 7.4 or PBSF pH 6.0, then incubated for 20 minutes on ice in the dark before cells were washed twice with either PBSF pH 7.4 or PBSF pH 6.0. Binding was analyzed on FACS Canto II.
# T1 sequence (P07766 23-207): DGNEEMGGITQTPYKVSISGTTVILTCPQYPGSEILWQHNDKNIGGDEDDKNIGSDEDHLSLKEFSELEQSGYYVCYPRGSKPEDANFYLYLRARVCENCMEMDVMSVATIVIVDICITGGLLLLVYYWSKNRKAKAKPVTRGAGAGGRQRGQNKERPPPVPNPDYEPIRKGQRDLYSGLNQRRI
row,MFI pH 6.0/MFI pH 7.4,Binder
1,31.6,B1
2,1.1,B2
3,1.2,B3
4,9.3,B4
5,0.9,B5
6,2.2,B6
7,1.9,B7
8,5.2,B8
9,2.6,B9
10,5.9,B10
11,0.8,B11
12,4.2,B12
13,4.5,B13
14,1.7,B14
15,3.2,B15
16,20.7,B16
17,39.4,B17
18,0.8,B18
19,3.1,B19
20,0.6,B20
21,3.5,B21
22,1.2,B22
23,2.3,B23
24,4.7,B24
25,5,B25
26,8.6,B26

# Target: T1, human CD3 on CD3+ Jurkat cells
# Test: flow cytometry, 100 nM IgG on CD3+ Jurkat cells, pH 7.4
# Experimental: as §1, §2
row,MFI pH 7.4 [MFI],Binder
1,140,B1
2,37,B2
3,4960,B3
4,37,B4
5,41,B5
6,1340,B6
7,2990,B7
8,55,B8
9,58,B9
10,34,B10
11,66,B11
12,41,B12
13,45,B13
14,52,B14
15,1320,B15
16,52,B16
17,96,B17
18,50,B18
19,53,B19
20,828,B20
21,51,B21
22,76,B22
23,583,B23
24,43,B24
25,72,B25
26,33,B26

# Target: T1, human CD3 on CD3+ Jurkat cells
# Test: flow cytometry, 100 nM IgG on CD3+ Jurkat cells, pH 6.0
# Experimental: as §1, §2
row,MFI pH 6.0 [MFI],Binder
1,4430,B1
2,40,B2
3,5980,B3
4,346,B4
5,36,B5
6,2900,B6
7,5810,B7
8,282,B8
9,148,B9
10,202,B10
11,52,B11
12,170,B12
13,203,B13
14,86,B14
15,4260,B15
16,1080,B16
17,3780,B17
18,42,B18
19,166,B19
20,500,B20
21,177,B21
22,89,B22
23,1320,B23
24,199,B24
25,361,B25
26,279,B26

# From patent US20220380463A1 (Adimab, published 2022)
